Non-standard residues stand in square brackets, D forms with d. *: point of attachment. Phe(4-NH2) = Nc1ccc(C[C@H](N)C(=O)O)cc1; 2Nal = N[C@@H](Cc1ccc2ccccc2c1)C(=O)O; Hyp = O=C(O)[C@@H]1C[C@@H](O)CN1; Cha = N[C@@H](CC1CCCCC1)C(=O)O; Chg = N[C@H](C(=O)O)C1CCCCC1; Cbz = O=C(OCc1ccccc1)*
biological target: human factor Xa (Enzyme Research Laboratories, Inc.) (human) (UniProt P00742); assay: chromogenic FXa inhibition
Sequence (P00742 41-179 limits assumed, chain 1 of 2): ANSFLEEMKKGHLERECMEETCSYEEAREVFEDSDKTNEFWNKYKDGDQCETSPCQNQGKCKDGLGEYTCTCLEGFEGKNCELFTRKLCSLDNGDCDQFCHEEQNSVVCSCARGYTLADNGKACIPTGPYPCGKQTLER
Sequence (P00742 235-488 limits assumed, chain 2 of 2): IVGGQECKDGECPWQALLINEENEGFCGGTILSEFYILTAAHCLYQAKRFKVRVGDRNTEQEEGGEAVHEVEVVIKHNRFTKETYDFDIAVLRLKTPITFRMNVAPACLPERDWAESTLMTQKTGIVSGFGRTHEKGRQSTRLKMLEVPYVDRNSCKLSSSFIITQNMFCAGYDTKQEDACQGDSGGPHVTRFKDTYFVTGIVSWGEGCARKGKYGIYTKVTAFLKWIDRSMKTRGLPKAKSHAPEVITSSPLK

Ki, < 100 µM:
Ac-D-pAph-Chg-Arg-Cys-(CH2-COOH)-Pro-NH2 (peptide), Caff-I-R-NH2 (peptide), (3-pyridoyl)-Nal(2)-Chg-Arg-Leu-Pro-NH2 (peptide), (2-benzofuroyl)-pAph-Chg-PalMe(3)-Pen(CH2COOH)-Pro-NH2 (peptide), Ac-Y-I-PalMe(3)-NH2 (peptide), Ac-(nBu)Y-I-R-NH2 (peptide), Ac-D-pAph-Chg-Arg-N[1(1,3-dicarboxy)propyl)]Gly-Pro-NH2 (peptide), Nal(2)-Chg-R-L-P-NH2 (peptide), (t-Butoxycarbonyl)-pAph-Chg-NH-(4-trimethyl-ammonium benzyl) (peptide), 5-Hic-Chg-R-NH2 (peptide), Cbz-Ile-Arg-Leu-NH2, Tfa-(iBu)Y-I-R-NH2 (peptide), Ac-Y-I-R-Piperidyl (peptide), Cbz-I-R-NH2 (peptide), Ac-Y-Chg-R(NO2)-{ψ(CH2NH)}-L-NH2 (peptide), Alloc-pAph-Chg-NH-[4-(-methylpyridinium)-methyl] (peptide), Ac-pAph-Chg-PalMe(3)-NH(1-methoxycarbonyl)-1-cyclohexyl (peptide), Ac-Y-I-R-L-P-Dab(Ac-Y-I-R-L-P(G-A)3)-OH (peptide), Ac-Y-I-R-NH-CH2-4-Pyridyl (peptide), Tfa-(iBu)Y-Chg-R-NH2 (peptide), (2-fluorobenzoyl)-pAph-Chg-NH-(4-trimethyl-ammonium benzyl) (peptide), Ac-pAph-Chg-Arg (peptide), Ac-Pal(4)Me-Chg-Pal(4)Me-Leu-Pro-NH2 (peptide), Ac-pAph-Chg-NH[4-(1-methyl-pyridinium)methyl] (peptide), Ac-pAph-Chg-NH-(4-trimethyl-ammonium benzyl) (peptide), Ac-pAph-Chg-Arg-(HOOC-CH2)Gly-Pro-NH2 (peptide), Alloc-pAph-Chg-PalMe(3)-Pen(CH2COOH)-Pro-NH2 (peptide), Ac-D-pAph-Chg-PalMe(3)-Leu-Pro-NH2 (peptide), Ac-pAph-Chg-PalMe(3)-NH-(4-methoxycarbonyl-cyclohexyl)methyl (peptide), Ac-Nal(2)-Chg-R-NH2 (peptide), Ph-C(NOCH2Ph)-CO-I-R-NH2 (peptide), Ac-pAph-Pgl-PalMe(3)-NH2 (peptide), (2-benzofuroyl)-pAph-Chg-PalMe(3)-NH2 (peptide), Ac-(4-MeO-Bzl)Y-I-R-NH2 (peptide), y-Chg-R-NH2 (peptide), Ac-Y-Chg-R-NH-CH2CH2-O-CH3 (peptide), (2-furoyl)-pAph-Chg-NH-(4-trimethyl-ammonium benzyl) (peptide), (2-benzofuroyl)-pAph-Chg-Arg-Pen(CH2COOH)-Pro-NH2 (peptide), Pgl(OH)-I-R-L-NH2 (peptide), Ac-D-pAph-Chg-Arg-N(carboxymethyl)Gly-Pro-NH2 (peptide), Ac-Y-Chg-R-NH-Bzl-4-OMe (peptide), Ac-pAph-Chg-PalMe(3)-Leu-Pro-NH2 (peptide), Ac-Y-Chg-R-NH-CH2CH2-N-(CH3)2 (peptide), Ac-(iBu)F(pNH2)-Chg-R-NH2 (peptide), Ac-pAph-Chg-Arg-Gla-Pro-NH2 (peptide), Ac-(3,5,5-Me-3-nHexyl)Y-I-R-NH2 (peptide), Tfa-(iBu)Y-I-PalMe(3)-NH2 (peptide), Ac-pAph-Chg-NH-[1-(1-methyl-4-pyridinium)ethyl (peptide), Ac-pAph-Chg-PalMe(3)-NH-(4-carboxycyclohexyl) methyl (peptide), Ac-Y-I-R-NH-4-morpholinyl (peptide), 3-phenoxyproprionic-Y-Chg-R-NH2 (peptide), y-Chg-R-L-NH2 (peptide), Ac-pAph-Chg-Arg-N[1(1,3-dicarboxy)propyl)]Gly-Pro-NH2 (peptide), Ac-pAph-Chg-Dab(CH ═N(CH3)2)-Leu-Pro-NH2 (peptide), Ac-Y-Chg-R-NH-CH2-Chx (peptide), Ac-pAph-Cha-PalMe(3)-(Me)Leu-Pro-NH2 (peptide), CF3C(O)-(iBu)Tyr-Chg-Arg-OH (peptide), y-I-R-NH2 (peptide), Ac-pAph-Chg-PalMe(3)-NH2 (peptide), (2-furoyl)-pAph-Chg-NH-1-[3(N-methylpyridyl)]-1-(methylacetate)ethyl (peptide), (pOH)C6H4-CH2CH2(OH)-CO-I-R-L-Sar-NH2 (peptide), Ac-D-pAph-Chg-Arg-(carboxyethyl)Gly-Pro-NH2 (peptide), (2-quinolinoyl)-pAph-Chg-PalMe(3)-NH2 (peptide), Ac-pAph-Chg-Arg-Cys(CH2COOH)-Pro-NH2 (peptide), Ac-Y-Nva-R-NH2 (peptide), Ac-(4-pyridil-CH2-)Y-I-R-NH2 (peptide), Ac-pAph-Chg-PalMe(3)-NH-(1-methoxycarbonyl)-1-cyclopentyl (peptide), Ac-D-pAph-Chg-Arg-Leu-Pro-NH2 (peptide), Ac-(Bzl)Y-I-R-NH2 (peptide), Ac-pAph-Chg-Arg-NH2 (peptide), Ac-D-pAph-Chg-Arg-Gla-Pro-NH2 (peptide), (2-benzofuroyl)-Phe(pNH2)-Chg-Dab(CH═N(CH3)2)-Leu-Pro-NH2 (peptide), 5-Bzim-CO-Chg-R-L-P-NH2 (peptide), Ac-pAph-Chg-Pal(3)(CH2COOH)-NH2 (peptide), Ac-pAph-Chg-Arg-Leu-OH (peptide), Ac-(iBu)Y-I-R-NH2 (peptide), (3,4-dichlorobenzoyl)-pAph-Chg-NH-(4-trimethyl-ammonium benzyl) (peptide), Ac-Y-Chg-R-NH-Chx (peptide), ClCH2CO-Y-I-R-NH2 (peptide), Ac-F(pNH2)-Chg-R-NH2 (peptide), Ac-y-I-R-NH2 (peptide), Ac-pAph-Chg-Arg-Leu-NH2 (peptide), (2-thienylacetyl)-pAph-Chg-NH-(4-trimethyl-ammonium benzyl) (peptide), Ac-[Phe(4-NH2)][Chg]RL[Hyp]-NH2, Ac-pAph-Chg-Arg(HOOC-CH2-CH2)Gly-Pro-NH2 (peptide), Ac-pAph-Chg-NH-[1-(1-methyl-4-pyridinium)-2-hydroxy]ethyl (peptide), Ac-Y-Chg-R-NH-CH2CH2-COOH (peptide), (Ethoxycarbonyl)-pAph-Chg-NH-(4-trimethyl-ammonium benzyl) (peptide), Tfa-Y-Chg-R-NH2 (peptide), Alloc-pAph-Chg-PalMe(3)-NH2 (peptide), Ac-pAph-Chg-PalMe(3)-NH-(3-thienyl-2-carboxylic acid methyl ester) (peptide), Ac-Y-I-R-N(Me)O-CH3 (peptide), (N-(5-methyl-2-thienoyl)-pAph-Chg-NH-(4-trimethyl-ammonium benzyl) (peptide), Ac-[2Nal][Cha]RLP-NH2, y-Tle-R-Nle-P-NH2 (peptide), (2-pyridoyl)-pAph-Chg-PalMe(3)-NH2 (peptide), Ac-pAph-Chg-PalMe(3)-Pen(CH2COOH)-Pro-NH2 (peptide), Ac-Y-I-R-L-P-Dab(Ac-Y-I-R-L-P(G-A)6)-OH (peptide), Nal(2)-Cha-R-D(O-Allyl)-Sar-NH2 (peptide), Ac-Y-Chg-R-NH-CH2(2-(6-EtO)benzylthiazolyl) (peptide), Ac-D-pAph-Chg-Arg-NH2 (peptide), Tfa-(iBu)Y-I-R-OH (peptide)

Source: patent publication US6759384
